Laboratory results taken from patent US12624096B2, “Anti-tau antibodies and methods of use thereof” (GTInvent Limited, priority 2020, dated 2026).

Experiments:
htau40 = htau40 (Homo sapiens, UniProt P10636); experiment: Biacore X100 SPR of anti-tau mAbs on immobilised htau40; format: binding; details: mAb; for ka / kd: Table 27, immobilised hT40
Protocol: For anti-tau mAb SPR measurements, htau40 was conjugated to the surface of a CM5 sensor chip using amine coupling as explained previously. Briefly, 2 μg/mL htau40 in 10 mM Sodium acetate buffer (pH 4.0) was passed over the activated chip surface (EDC/NHS) in flow cell 2 for a period for 45 s followed by blocking with 1 M ethanolamine-HCl PH 8.5. Flow cell 1 was set up as reference control and blocked simultaneously. Final immobilisation level of htau40 (Rmax) was approximately 250 RU. Following a minimum of three start-up cycles, increasing concentrations (0.78 nM-25 nM) of the mAb in HBS-EP+ buffer was added at a rate of 30 μL/min to the chip. The mAb was added for a 120 s association period and 600 s dissociation period followed by a regeneration cycle of 30 s injection of glycine buffer pH 1.5 in between each cycle. Binding responses were analysed in Biacore X100 evaluation software and data fitted to a 1:1 binding model to obtain kinetic and affinity characterisation.
For anti-tau mAb SPR measurements (Biacore X100™) and epitope mapping, the same methodologies described above (see Example 16) were followed. Kinetic rates and equilibrium binding constants of additional anti-tau mAbs and the regions recognised on hT40 are given in the Table 25 below

hT40 = hT40 (Homo sapiens, UniProt P10636); experiment: Biacore X100 SPR, scAb captured via anti-HuCk, hT40 as analyte; format: binding; details: scAb, Table 23, T441 (hT40)
Protocol: Surface plasmon resonance (SPR) is widely regarded as the gold standard for real time measurement of protein-protein interactions such as antibody binding. All SPR experiments were carried out using a Biacore X100 machine and HBS EP+ running buffer (GE Healthcare). A ‘capture’ method was followed for affinity measurements, where an anti-human constant kappa chain (HuCk) antibody was conjugated to the surface of a CM5 sensor chip using an amine coupling kit and scAb molecules were immobilised via their HuCk domain. Amine coupling is a very common approach for immobilising the ligand to the chip surface. […] The capture antibody was diluted 1/100 in 10 mM Sodium acetate buffer pH 5.0 and passed over the activated chip surface for a period of at least 420 s. Final ligand immobilisation levels over 12,000 RU were deemed to be satisfactory.
(§1) Following immobilisation, the level of each scAb to be captured was identified using the standard SPR equation with a theoretical RMax of 100 RU. Analyte MW refers to the molecular weight of hT40 or dGA/dGAE molecules, while ligand MW refers to the molecular weight of the scAbs tested. RL is the desired capture level and S refers to the stoichiometric ratio:
The scAb to be tested was added only to flow cell 2 so that flow cell 1 could act as a control to subtract any interaction with the analyte and the chip surface. Both single and multi-cycle runs were utilised using wizards developed in the Biacore X100 control software which are both accepted methods of kinetic analysis (Karlsson, R., et al. Analyzing a kinetic titration series using affinity biosensors (2006) Analytical Biochemistry 349:136-47). The multi-cycle protocol was as follows-Three start-up cycles composed of an initial capture, to the desired level, of the scAb to be tested was performed followed by a 30 s injection of glycine buffer pH 2.0 after each cycle to regenerate the chip surface. […] Following three start-up cycles increasing concentrations (0.15625 nM-100 nM) of the target to be tested were added to the chip surface after the desired scAb capture. The target was added for a 120 s association period and 420 s dissociation period followed by another regeneration, 30 s injection of glycine buffer pH 2.0 in between each cycle.
(§2) The single cycle kinetics protocol was similar and utilised the same level of scAb capture. Three start-up cycles were used followed by 5 increasing concentrations of the analyte (6.25 nM-100 nM) for an association period of 120 s followed by a dissociation period of 420 s for each concentration. In single cycle kinetics the regeneration step was performed only after the final analyte concentration was added. Binding responses were analysed in Biacore X100 evaluation software and data fitted to a 1:1 binding model to obtain kinetic and affinity characterisation.

[1] = tested on: alanine substituted 13mer tau peptides; experiment: Alanine scanning mutagenesis (ASM) peptide ELISA; format: binding, human; details: numbering according to SEQ ID NO: 1; description text 'may be'
Protocol: To further elucidate epitopes of the scAb panel, and identify the critical amino acids needed for binding, alanine scanning mutagenesis of the parent 13 aa peptides for scAbs CE2, S1D12, CA4 and S1G2 was performed. […] Briefly, 5 μg/ml streptavidin (Thermo Fisher) was adsorbed to Nunc 96-well MaxiSorp plates and following incubation at 37° C., for 1 h, the plates were washed as normal and blocked with 2% MPBS. N-terminally biotinylated peptides (Prolmmune Ltd) were added to the plates and incubated for 1 h at 37° C. Subsequently, test scAbs at starting concentrations of 100-500 nM was added and double diluted across the plate for each peptide and incubated for 1 h at 37° C. Rest of the ELISA was conducted as described above and the plates were read at absorbance 450 nm. Immunoreactivity of the scAb of interest was quantified as the % of scAb was bound for each peptide at a chosen concentration (FIG. 15-20).

human tau and mouse tau = experiment: Western blot of WT, L66+/+ and L1+/+ mouse brain homogenates; format: binding; details: 20 μg protein, 5-month-old mice
Protocol: Protein equivalent to 20 μg from each brain extract was separated using 4-20% bis-tris gels and run in 1×MES buffer.
A band is detected in each sample (WT, L66^+/+ and L1^+/+) with an apparent molecular weight of approximately 55 kDa. This band most likely corresponds to endogenous mouse tau which is of a similar size. In the L66^+/+ samples, a second band running at approximately 68 kDa is also detected. The presence of numerous other bands indicates proteolytic truncation of tau within brain homogenates.

dGA = dGA (Homo sapiens, UniProt P10636); experiment: Biacore X100 SPR, scAb captured via anti-HuCk, dGA as analyte; format: binding; details: dissociation rate
Protocol: Surface plasmon resonance (SPR) is widely regarded as the gold standard for real time measurement of protein-protein interactions such as antibody binding. All SPR experiments were carried out using a Biacore X100 machine and HBS EP+ running buffer (GE Healthcare). A ‘capture’ method was followed for affinity measurements, where an anti-human constant kappa chain (HuCk) antibody was conjugated to the surface of a CM5 sensor chip using an amine coupling kit and scAb molecules were immobilised via their HuCk domain. Amine coupling is a very common approach for immobilising the ligand to the chip surface. The chip surface has a dextran matrix derivatised with carboxyl groups, which after activation with N-hydroxysuccinimide (NHS) and 1-ethyl-3-(3-dimethylaminopropyl) carbodiimide (EDC), form reactive succinimide esters which allows the covalent capturing of the ligand via any available primary amine groups (e.g. Lysine) on the ligand (in this case anti-HuCk antibody). The capture antibody was diluted 1/100 in 10 mM Sodium acetate buffer pH 5.0 and passed over the activated chip surface for a period of at least 420 s. Final ligand immobilisation levels over 12,000 RU were deemed to be satisfactory.
as §1
The scAb to be tested was added only to flow cell 2 so that flow cell 1 could act as a control to subtract any interaction with the analyte and the chip surface. Both single and multi-cycle runs were utilised using wizards developed in the Biacore X100 control software which are both accepted methods of kinetic analysis (Karlsson, R., et al. Analyzing a kinetic titration series using affinity biosensors (2006) Analytical Biochemistry 349:136-47). The multi-cycle protocol was as follows-Three start-up cycles composed of an initial capture, to the desired level, of the scAb to be tested was performed followed by a 30 s injection of glycine buffer pH 2.0 after each cycle to regenerate the chip surface. The regeneration step removed any captured scAb whilst leaving the capture antibody intact and able to repeat the capture for the next cycle. Following three start-up cycles increasing concentrations (0.15625 nM-100 nM) of the target to be tested were added to the chip surface after the desired scAb capture. The target was added for a 120 s association period and 420 s dissociation period followed by another regeneration, 30 s injection of glycine buffer pH 2.0 in between each cycle.
as §2

[2] = tested on: hT40, dGA, dGAE and truncated tau fragments/peptides; experiment: Binding ELISA for epitope mapping with truncated tau proteins and biotinylated 13mer peptides; parameters: species or system human; details: direct binding ELISA
Protocol: A series of binding ELISA was performed using various truncated versions of the tau protein and 13mer peptide libraries spanning the entire hT40 molecule for mapping the epitopes of anti-tau scAbs (Full list of protein antigens used is given in Table 14). In general, ELISA plates were coated with 1 μg/ml hT40 or dGA or dGAE or other truncated versions of the protein and in the case of biotinylated peptides, plates were coated with 5 μg/ml Streptavidin followed by 1 μg/ml biotinylated peptide. The plates were blocked with 2% MPBS and scAb samples added at desired starting concentrations and double diluted across the plate. Binding was detected using anti-Human C Kappa HRP conjugated secondary antibody and the resulting immunoreaction was developed and absorbance values measured as described above.
Similarly, dGA binding ‘NS’, ‘S’ and ‘M’ group scAbs were subjected to further antigen binding ELISA using shorter tau proteins and biotinylated 13mer peptides as shown below (FIGS. 10A-F) and (FIGS. 11A-R).
For anti-tau mAb SPR measurements (Biacore X100™) and epitope mapping, the same methodologies described above (see Example 16) were followed.

Sequence of hT40 (P10636 1-441 isoform P10636-8): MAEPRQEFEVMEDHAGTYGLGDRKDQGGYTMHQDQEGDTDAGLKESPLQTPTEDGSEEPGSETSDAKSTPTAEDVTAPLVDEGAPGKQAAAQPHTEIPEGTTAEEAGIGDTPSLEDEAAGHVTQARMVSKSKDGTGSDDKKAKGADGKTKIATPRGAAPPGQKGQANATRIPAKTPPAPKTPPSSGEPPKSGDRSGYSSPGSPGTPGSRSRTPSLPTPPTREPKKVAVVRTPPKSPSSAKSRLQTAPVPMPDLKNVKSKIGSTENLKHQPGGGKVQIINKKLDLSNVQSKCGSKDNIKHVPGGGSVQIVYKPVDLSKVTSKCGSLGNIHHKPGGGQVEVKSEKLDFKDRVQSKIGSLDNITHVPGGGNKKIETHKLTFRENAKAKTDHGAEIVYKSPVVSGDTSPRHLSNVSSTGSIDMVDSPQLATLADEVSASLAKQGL
Sequence of htau40 (P10636 1-441 isoform P10636-8): as above
Sequence of dGA (P10636 614-707): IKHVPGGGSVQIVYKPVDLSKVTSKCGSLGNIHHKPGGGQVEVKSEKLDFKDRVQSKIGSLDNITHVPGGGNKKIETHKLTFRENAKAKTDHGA

Row | Molecule | ka (htau40) | kd (htau40) | ka (hT40) | kd (hT40) | Critical residues of the epitope [1] | bands detected in western blot of WT, L66+/+ and L1+/+ brain homogenates (human tau and mouse tau) | Kd (dGA) | cross-reactivity of 'E' group scAbs using hT40, dGA and dGAE antigens [2] | Kd (htau40; Table 27, read-out: kD (M) for hT40 binding)
1 | CA4: anti-tau clone, SEQ ID NO: 368 (protein, CA4 amino acid sequence) QVQLQESGPSLVKPSQTLSLTCTVSGFSLTSYSVYWVRQAPGQALEWISIMYASGRVDYNPALKSRLSITRDTSKSQFSLSLSSVTTEDTAVYYCTRGIENWGPGLLVTVSSEGKSSGASGESKVDDDIQVTQSPSSLSASLTERVSITCRTSQSVNNYLSWYQQKPGQAPKLLIYYATRLYTDVPSRFSGSGSGTDYTLTITSLEADDTATYYCLQYDSTPLAFGGGTNVEIK | 1.02e+06 M⁻¹ s⁻¹ | 0.001276 s⁻¹ | 458100 M⁻¹ s⁻¹ | 0.001654 s⁻¹ | 358 (D), 360 (I), 361 (T), 362 (H) and/or 364 (P) | – | – | – | –
2 | CC7: anti-tau clone, SEQ ID NO: 365 (protein, CC7 amino acid sequence) scFv: QVQLQESGPSLVKPSQTLSLTCTVSGFSLTSNAVIWVRQAPGKAPEWVALIDVDGDAAYDPALKSRLSITRDTSKSQVSLSLRSVTTEDTAVYYCARDYGSWGYVSDIDYWGPGLLVTVSSEGKSSGASGESKVDDRVVRTQPSSVSGSLGQRVSITCSGSYITGSSVGWFQQVPGSGLKTVIYDNNDRPSGVPDRFSGSKSGDTATLTISSLQAEDEADYYCASYDTSNIGLFGSGTRLTVLG | 4.576e+06 M⁻¹ s⁻¹ | 0.03164 s⁻¹ | 295700 M⁻¹ s⁻¹ | 0.0003659 s⁻¹ | – | show specificity for human tau | – | – | –
3 | S1E12: anti-tau clone, SEQ ID NO: 218 (protein, S1E12 amino acid sequence) scFv: QVQLQESGPSLVKPSQTLSLTCTVSGFSLGSNSVGWVRQAPGKAPEWVAGIDTDGEEGYNPALNSRLSITRDTSKSQVSLSLSSVTSEDTAVYYCGRSYRADGLAYGYVQAIDYWGPGLLVTVSSEGKSSGASGESKVDDRVVRTQPSSVSGSLGQRVSITCSGSFIGISSVGWFQQLPGSGLRTIIVASDGRPSGVPDRFSMSKSGNTATLTISSLQAEDEADYFCGSSDRTQYTGVFGSGTRLTVLG | – | – | 385000 M⁻¹ s⁻¹ | 0.000319 s⁻¹ | – | – | 0.001627 s⁻¹ | – | –
4 | E2B7: anti-tau clone, SEQ ID NO: 254 (protein, E2B7 amino acid sequence) scFv: QVQLQESGPSLVKPSQTLSLTCTVSGFSLTSWGVAWVRQAPGKALEWLGTMRSGGGTEYNPALKSRLSITRDTSKSQVSLSLSSVTTEDMAMYYCARGYLSGIHYAWGRGLLVSVSSEGKSSGASGESKVDDQAVLTQLSSVSGSLGQRVSITCSGSSSNVGDGDYVGWFQQLPGSAPKLLIYSARNRASGVPDRFSGSRSGNTATLTITSLQAEDEADYYCASIDTSRSHIFGSGTRLTVLG | – | – | – | – | – | – | – | specific dGAE binding | –
5 | NS2A1: anti-tau clone, SEQ ID NO: 220 (protein, NS2A1 amino acid sequence) scFv: QVQLQESGPSLVKPSQTLSLTCTVSGFSLSTNSVGWVRQAPGKAPEWVAGIDTDGEEGFNPVLKSRLSITRDTSKSQVSLSLSNVTSEDTAVYYCGRSYRTDGLAYGYVQAIDYWGPGLLVTISSEGKSSGASGESKVDDQSVLTQPSSVSGSPGQTVSITCSGSYIGSSGVGWFQQLPGSGLRTIIVASDGRPSGVPDGFSMSKSGNTATLTISSLQAEDEADYFCGSSDRTQYTGLFGSGTRLTVLG | 893700 M⁻¹ s⁻¹ | 0.002621 s⁻¹ | 252100 M⁻¹ s⁻¹ | 0.0007393 s⁻¹ | – | – | 0.00102 s⁻¹ | – | 1e-08 M
